From article PMC3288383 (Journal of Molecular Biology, 2012)
Positions count from the first letter of the chain named. “And” between values parts separate entries of the source, which are not always exact repeats. Equal entries are not always repeated.

Assays:
[1] = molecular target: T1, Jac1 (wild type), His-tagged (S. cerevisiae, UniProt P53193 11-184); test: pull-down
T1 sequence (looked up): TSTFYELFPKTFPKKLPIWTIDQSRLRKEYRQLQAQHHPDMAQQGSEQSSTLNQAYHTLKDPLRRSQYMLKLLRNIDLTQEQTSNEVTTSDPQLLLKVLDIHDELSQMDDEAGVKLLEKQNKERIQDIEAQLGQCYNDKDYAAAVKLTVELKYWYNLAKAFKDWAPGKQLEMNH

Jac1_(L106) = molecular target: T2, Jac1_(L106) (S. cerevisiae, UniProt P53193 11-184, L106 to Ala); test: pull-down
T2 sequence (looked up): T1 sequence (looked up) with L96A

Isu1His = molecular target: T3, Isu1His (S. cerevisiae, UniProt Q03020 28-165); test: cell-based or functional assay
T3 sequence (looked up): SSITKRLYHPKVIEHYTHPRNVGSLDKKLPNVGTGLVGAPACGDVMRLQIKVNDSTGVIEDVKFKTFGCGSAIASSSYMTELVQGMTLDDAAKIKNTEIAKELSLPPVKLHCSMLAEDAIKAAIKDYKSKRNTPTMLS

B1: Isu1-GST (natural protein, S. cerevisiae, UniProt Q03020 28-165, looked up)
chain: T3 sequence (looked up)
Kd [1]: 690 nM and 800 nM | Kd (Jac1_(L106)): 250 ± 70 nM

B2: Jac1Y (natural protein, S. cerevisiae, UniProt P53193 11-184, looked up)
chain: T1 sequence (looked up) with Y153A
stimulation of Ssq1 ATPase activity: increase of C0.5 against wt (Isu1His): ~15 fold

B3: Jac1LLL (natural protein, S. cerevisiae, UniProt P53193 11-184, looked up)
chain: T1 sequence (looked up) with L95A, L96A, L99A
stimulation of Ssq1 ATPase activity: C0.5 compared to the wt control (Isu1His): ~24 fold
